Among the data in patent publication US20200190213A1 (REVITOPE, published 2020) are binding result and EC50 values, retold here.

Usually EC50 stands for the concentration giving half of the maximal effect.

The labels stand for the following.
B2: CD3 Fc-fusion protein (murine IgG2a Fc) (Fc fusion)
chain: DGNEEMGGITQTPYKVSISGTTVILTCPQYPGSEILWQHNDKNIGGDEDDKNIGSDEDHLSLKEFSELEQSGYYVCYPRGSKPEDANFYLYLRARVCENCMEMD
notes: Soluble antigen of the bridging ELISA; not shown: murine IgG2a Fc

Experiment [1] has as its target T1, Recombinant soluble EpCAM-His6 protein (UniProt P16422 24-265).
T1 construct: Coated on ELISA plates at 5 ug/ml; also called target antigen; not shown: His6 tag
T1 sequence (looked up): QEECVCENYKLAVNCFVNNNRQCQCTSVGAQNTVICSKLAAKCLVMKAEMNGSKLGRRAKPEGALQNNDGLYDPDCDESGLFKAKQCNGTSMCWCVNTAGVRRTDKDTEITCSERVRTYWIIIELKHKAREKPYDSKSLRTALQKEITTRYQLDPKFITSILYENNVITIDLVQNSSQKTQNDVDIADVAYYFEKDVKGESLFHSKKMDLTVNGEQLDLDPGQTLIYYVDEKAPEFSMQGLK
Description: ELISA on coated EpCAM-His6. The source says:
TWICE molecules were engineered with the CD3 antibody SP34 and the CTLA4 antibody Ipilimumab and containing the hetero-Fc dimerization domain. In some examples, the anti-EpCAM antibody Solitomab was used as a Fab (TWICE277 and TWICE278), in other examples this antibody was used as a disulfide-stabilized Fv (dsFv, TWICE332 and TWICE335) by engineering a disulfide between the residue 44 of the VH and residue 100 of the VL (referring to Kabat numbering). The TWICE molecules were expressed and purified by Protein A affinity chromatography as described above, and their ability to bind to EpCAM was tested in an ELISA binding assay. Recombinant soluble EpCAM-His6 protein (produced in-house) was coated on ELISA plates at 5 μg/ml at 4° C. overnight and plates blocked with 1% BSA in PBS. Serial dilutions of TWICE were allowed to bind to EpCAM, and the bound TWICE were detected with a mouse anti-human Fc secondary (JDC-10 Abcam, ab99759).
In general terms: In an ELISA, binding on a coated surface is turned into a signal by an enzyme label.

Experiment [2] deals with T2, Recombinant soluble EpCAM-His6 protein (UniProt P16422 24-265).
T2 chain: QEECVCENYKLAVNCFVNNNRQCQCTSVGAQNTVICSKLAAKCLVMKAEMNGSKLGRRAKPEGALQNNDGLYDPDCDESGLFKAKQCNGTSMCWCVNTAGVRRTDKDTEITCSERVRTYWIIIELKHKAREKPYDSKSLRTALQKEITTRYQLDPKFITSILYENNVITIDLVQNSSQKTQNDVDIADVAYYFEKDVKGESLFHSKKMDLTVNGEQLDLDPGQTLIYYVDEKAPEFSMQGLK
As to the kind of experiment: ELISA.

The target in experiment [3] is T3, TWICE277 plus TWICE278, combined, not cleaved.
T3 construct: Two-component pair with intact hetero-Fc dimerization domains
As to the kind of experiment: CD3 bridging ELISA on coated EpCAM. The procedure:
(§1) To test the domain swap and generation of functional paratopes (i.e., paired VH/VL domains) by TWICE pairs, a bridging ELISA assay was developed that measures the ability of TWICE pairs to bind target antigen and immune cell engaging molecules simultaneously. The schematic drawing in FIG. 9A illustrates the principle of this bridging ELISA. Briefly, the ELISA plates are coated with target antigen (recombinant soluble EpCAM, black hexagon) at a concentration of 5 μg/ml overnight. TWICE molecules can be activated by cleavage with FXa as described above, and then added to the plate at a serial dilution. The TWICE can bind to the target antigen with their target binding moiety, which is drawn as Fab (4 grey ovals) in FIG. 9A. Binding to the target antigen (EpCAM) on the plate brings the TWICEs in close proximity, which allows the immune cell binding domain and the complementary binding domain to undergo domain swap and form complete immune cell binding paratopes (black and white ovals in FIG. 9A). The functional complementation is measured by incubation with an antigen that is bound by the immune cell binding domain, such as CD3 (striped triangle in FIG. 9A). The antigen is provided as an Fc-fusion protein (murine IgG2a Fc), and can therefore be detected with an anti-mouse Fc secondary antibody. […]

In experiment [4] the target is B2. As to the kind of experiment: CD3 bridging ELISA on coated EpCAM, CD3-Fc detected with anti-mouse Fc. The procedure: as §1
The target of experiment [5] is T4, CTLA-4 Fc-fusion protein (murine IgG2a Fc) (murine, UniProt P16410 36-161 (human entry), limits assumed).
T4 construct: Soluble antigen of the bridging ELISA; not shown: murine IgG2a Fc
Description: CTLA-4 bridging ELISA on coated EpCAM, CTLA-4-Fc detected with anti-mouse Fc. The method, then: as §1

T4 sequence (P16410 36-161 limits assumed): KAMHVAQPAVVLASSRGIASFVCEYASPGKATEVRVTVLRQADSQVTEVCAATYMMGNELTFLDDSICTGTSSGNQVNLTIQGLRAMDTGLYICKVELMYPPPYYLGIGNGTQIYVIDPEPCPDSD

B1: TWICE335 (other)
heavy: EVQLLEQSGAELVRPGTSVKISCKASGYAFTNYWLGWVKQRPGHCLEWIGDIFPGSGNIHYNEKFKGKATLTADKSSSTAYMQLSSLTFEDSAVYFCARLRNWDEPMDYWGQGTTVTVSSGGGSGGGGSQVQLVESGGGVVQPGRSLRLSCAASGFTFSSYTMHWVRQAPGKGLEWVTFISYDGNNKYYADSVKGRFTISRDNSKNTLYLQMNSLRAEDTAIYYCARTGWLGPFDYWGQGTLVTVSSGGGIEGRGGGDKTHTCPPCPAPELLGGPSVFLFPPKPKDTLMISRTPEVTCVVVDVSHEDPEVKFNWYVDGVEVHNAKTKPREEQYQSTYRVVSVLTVLHQDWLNGKEYKCKVSNKALPAPIEKTISKAKGQPREPQVYTLPPSRDELTKNQVKLTCLVKGFYPSDIAVEWESNGQPENNYKTTPPVLDSDGSFFLYSLLTVDKSRWQQGNVFSCSVMHEALHNHYTQKSLSLSPG
light: ELVMTQSPSSLTVTAGEKVTMSCKSSQSLLNSGNQKNYLTWYQQKPGQPPKLLIYWASTRESGVPDRFTGSGSGTDFTLTISSVQAEDLAVYYCQNDYSYPLTFGCGTKLEIKGGGGSGGGGSQAVVTQEPSLTVSPGGTVTLTCRSSTGAVTASNYANWVQQKPGQAPRGLIGGTNKRAPWTPARFSGSLLGGKAALTITGAQAEDEADYYCALWYSNLWVFGGGTKLTVLGGGIEGRGGGDKTHTCPPCPAPELLGGPSVFLFPPKPKDTLMISRTPEVTCVVVDVSHEDPEVKFNWYVDGVEVHNAKTKPREEQYQSTYRVVSVLTVLHQDWLNGKEYKCKVSNKALPAPIEKTISKAKGQPREPQVYTLPPSRDELTKNQVSLTCLVSGFYPSDIAVEWESNGQPENNYKTTPPVLDSDGSFKLYSKLTVDKSRWQQGNVFSCSVMHEALHNHYTQKSLSLSPG
notes: The anti-EpCAM targeting moiety is a disulfide-stabilized Fv (Cys at VH 44 and VL 100, Kabat); hetero-Fc dimerization domain; also called dsFv Ipilimumab VH SP34 VL Fc
B1: in experiment [1], the binding result is listed as “binds”. Further, the EC50 in experiment [2] came out at 1.04 nM.
Consider B2, for which, in experiment [3], the binding result is recorded as “no binding”.

B3: TWICE278 (other)
heavy: EVQLLEQSGAELVRPGTSVKISCKASGYAFTNYWLGWVKQRPGHGLEWIGDIFPGSGNIHYNEKFKGKATLTADKSSSTAYMQLSSLTFEDSAVYFCARLRNWDEPMDYWGQGTTVTVSSASTKGPSVFPLAPSSKSTSGGTAALGCLVKDYFPEPVTVSWNSGALTSGVHTFPAVLQSSGLYSLSSVVTVPSSSLGTQTYICNVNHKPSNTKVDKKVEPKSCDKTHTGGGGSGGGGSQVQLVESGGGVVQPGRSLRLSCAASGFTFSSYTMHWVRQAPGKGLEWVTFISYDGNNKYYADSVKGRFTISRDNSKNTLYLQMNSLRAEDTAIYYCARTGWLGPFDYWGQGTLVTVSSGGGIEGRGGGDKTHTCPPCPAPELLGGPSVFLFPPKPKDTLMISRTPEVTCVVVDVSHEDPEVKFNWYVDGVEVHNAKTKPREEQYQSTYRVVSVLTVLHQDWLNGKEYKCKVSNKALPAPIEKTISKAKGQPREPQVYTLPPSRDELTKNQVKLTCLVKGFYPSDIAVEWESNGQPENNYKTTPPVLDSDGSFFLYSLLTVDKSRWQQGNVFSCSVMHEALHNHYTQKSLSLSPG
light: ELVMTQSPSSLTVTAGEKVTMSCKSSQSLLNSGNQKNYLTWYQQKPGQPPKLLIYWASTRESGVPDRFTGSGSGTDFTLTISSVQAEDLAVYYCQNDYSYPLTFGAGTKLEIKRTVAAPSVFIFPPSDEQLKSGTASVVCLLNNFYPREAKVQWKVDNALQSGNSQESVTEQDSKDSTYSLSSTLTLSKADYEKHKVYACEVTHQGLSSPVTKSFNRGECGGGGSGGGGSGGGGSQAVVTQEPSLTVSPGGTVTLTCRSSTGAVTASNYANWVQQKPGQAPRGLIGGTNKRAPWTPARFSGSLLGGKAALTITGAQAEDEADYYCALWYSNLWVFGGGTKLTVLGGGIEGRGGGDKTHTCPPCPAPELLGGPSVFLFPPKPKDTLMISRTPEVTCVVVDVSHEDPEVKFNWYVDGVEVHNAKTKPREEQYQSTYRVVSVLTVLHQDWLNGKEYKCKVSNKALPAPIEKTISKAKGQPREPQVYTLPPSRDELTKNQVSLTCLVSGFYPSDIAVEWESNGQPENNYKTTPPVLDSDGSFKLYSKLTVDKSRWQQGNVFSCSVMHEALHNHYTQKSLSLSPG
notes: One TWICE component: anti-EpCAM (Solitomab) Fab, Ipilimumab VH, SP34 VL, FXa-cleavable linkers, hetero-Fc; Uncleaved in the EpCAM ELISA; In the bridging ELISA it was tested alone, also after FXa cleavage; also called Ipilimumab VH SP34 VL Fc
On to B3, for which the binding result in experiment [1] is recorded as “binds”; in experiment [4] it was “no binding”; in experiment [5], “no binding”. Further, the EC50 in experiment [2] came to 1.21 nM.
